How the values were obtained:
Conditions in all cases: glycan lost; control: wild type
[1] = selective uptake of [3H]COE from HDL
[2] = [3H]cholesterol release from cells to HDL
[3] = cholesterol oxidase sensitivity, cholestenone by TLC
[4] = cell surface biotinylation, immunoblot densitometry
[5] = flow cytometry, extracellular-domain antibody

B1: SR-BI (scavenger receptor class B type I; CLA-1): T175A (protein)
parent chain: MGCSAKARWAAGALGVAGLLCAVLGAVMIVMVPSLIKQQVLKNVRIDPSSLSFNMWKEIPIPFYLSVYFFDVMNPSEILKGEKPQVRERGPYVYREFRHKSNITFNNNDTVSFLEYRTFQFQPSKSHGSESDYIVMPNILVLGAAVMMENKPMTLKLIMTLAFTTLGERAFMNRTVGEIMWGYKDPLVNLINKYFPGMFPFKDKFGLFAELNNSDSGLFTVFTGVQNISRIHLVDKWNGLSKVDFWHSDQCNMINGTSGQMWPPFMTPESSLEFYSPEACRSMKLMYKESGVFEGIPTYRFVAPKTLFANGSIYPPNEGFCPCLESGIQNVSTCRFSAPLFLSHPHFLNADPVLAEAVTGLHPNQEAHSLFLDIHPVTGIPMNCSVKLQLSLYMKSVAGIGQTGKIEPVVLPLLWFAESGAMEGETLHTFYTQLVLMPKVMHYAQYVLLALGCVLLLVPVICQIRSQVGAGQRAARADSHSLACWGKGASDRTLWPTAAWSPPPAAVLRLCRSGSGHCWGLRSTLASFACRVATTLPVLEGLGPSLGGGTGS
other: transport activity [1]: decreases
other: free cholesterol efflux [2]: decreases
other: plasma membrane free cholesterol redistribution [3]: decreases
localisation_or_trafficking, percent_of_wt [4]: decreases, more than 50% less vs 100
localisation_or_trafficking [5]: decreases
